Test results as given in US11827690B2, “ApoC-II mimetic peptides” (THE UNITED STATES OF AMERICA, as represented by the …, priority 2017, dated 2023).
Non-standard residues stand in square brackets, D forms with d. No end group written: not given here. *: point of attachment. Stearoyl = CCCCCCCCCCCCCCCCCC(=O)*; Palmitoyl = CCCCCCCCCCCCCCCC(=O)*; Nle = CCCC[C@H](N)C(=O)O; Aib = CC(C)(N)C(=O)O

Assays:
[1] = molecular target: T1, bovine LPL (Bos taurus, UniProt P11151); assay: in vitro LPL assay using apoC-II deficient patient sera as substrate; format: biochemical; conditions: for effect of lipidation on ability of C2thirdhelix to promote TG hydrolysis: FIG. 9; for promoting TG hydrolysis in the presence of LPL: FIG. 6; for LPL activation / TG hydrolysis: FIG. 52
T1 sequence (P11151 29-478): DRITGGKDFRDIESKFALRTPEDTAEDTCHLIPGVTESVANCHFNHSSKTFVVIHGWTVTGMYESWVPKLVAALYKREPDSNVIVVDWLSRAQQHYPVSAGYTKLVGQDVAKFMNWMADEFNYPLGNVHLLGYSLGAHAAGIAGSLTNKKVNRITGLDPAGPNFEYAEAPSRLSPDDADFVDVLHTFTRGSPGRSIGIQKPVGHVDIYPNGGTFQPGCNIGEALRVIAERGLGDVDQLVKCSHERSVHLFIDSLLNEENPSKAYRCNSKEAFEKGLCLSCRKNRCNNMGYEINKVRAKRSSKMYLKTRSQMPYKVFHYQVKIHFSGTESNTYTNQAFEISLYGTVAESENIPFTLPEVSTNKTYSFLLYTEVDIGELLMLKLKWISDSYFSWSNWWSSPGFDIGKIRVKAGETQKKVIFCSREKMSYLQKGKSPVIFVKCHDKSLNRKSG
Experimental: Preparation of LPL: frozen stock of 10 μL of 0.5 mg/mL bovine LPL was used and diluted 1:100 (10 μL+990 μL of PBS).
Preparation of 20% Intralipid: 2000 mg/dL TG Intralipid was used to prepare 3 mg/dL TG Intralipid by diluting 1.5 μL of the stock with 998.5 μL PBS, or by diluting the stock 1:10 first and then mixing 15 μL of the diluted stock with 985 μL PBS. When apoC-II deficient human serum was used as a substrate, a frozen 10 μL aliquot of 1711 mg/dL (TG) was diluted by adding 990 μL PBS (1:100 dilution).
Preparation of free fatty acid (NEFA) assay: NEFA reagents were purchased from Wako Diagnostics, Wako Life Sciences, Inc. Reagent A was prepared by mixing Coloring Reagent A with Solvent A (225 μL per well). Reagent B was prepared by mixing Coloring Reagent B with Solvent B (75 μL per well). 5 nmoL oleic acid standard was prepared by diluting 20 μL of 1 mM oleic acid stock (WAKO NEFA standard solution) with 180 μL of 0.2% BSA.
LPL activity assay: 10 μL of Intralipid, human plasma sample, or mouse plasma sample was added in each well using repeater pipette. 10 μL (or 15 μL in the wells with no LPL control) of PBS and 10 μL of 1% BSA was added in each well using repeater pipette. 10 μL of peptides were added to corresponding wells in vertical triplicates (lowest concentration is on a left, highest is on the right). The plate was spun down at 1000 RPM for 10 seconds to mix and to remove the solutions from the wall of each well. The plate was put on ice and 5 μL of LPL was added using repeater pipette. The plate was spun down again at 1000 RPM for 10 seconds. The plate was covered and put back on ice for an incubation of 30 min. The plate was then moved to 37° C. and incubated for 1 hour.
Free fatty acids (NEFA) assay: 45 μL of 5 nmoL standard and 0 nmoL control (0.2% BSA) were added to corresponding wells. 225 μL of reagent A was added in each well using the reagent tray and 12-channel pipette. The plate was incubated for 10 min before 75 μL of reagent B was added to each well using the reagent tray and 12-channel pipette. The plate was not covered due to the high volume. The absorbance at 550 nm and 660 nm was measured.

[2] = test system: apoC-II knockout mice; assay: plasma lipids of apoC-II knockout mice after peptide injection; format: in vivo
Experimental: C57Bl/6 mice (wild-type), apoC-II knockout (apoC-II KO) mice, and apoC-III transgenic mice were used for in vivo study. The C57Bl/6 mice (wild-type) were purchased from Taconic Biosciences Inc. The apoC-II KO mice were created as described in Sakurai et al., J Pharmacol Exp Ther 356:341-353, 2016. The apoC-III transgenic mice were generated by overexpressing human apoC-III in C57Bl/6 mice. See Qu et al., J. Lipid Res. 48:1476-1487, 2007.
Mice were fasted overnight (approximately 12 hours) before the study and 6 hours during the study, the next day. The apoC-II mimetic peptides were synthetically produced and free of biological contamination (not available as FDA approved compounds/treatment). […] W.) administered either subcutaneous injection (S.Q. or S.C.), intraperitoneal injection (I.P.) or intravenous injection (I.V.) (in a sterile, pharmaceutical grade PBS solution at a volume ≤200 μL) as described in Sakurai et al., J Pharmacol Exp Ther 356:341-353, 2016.

[3] = concentrations from 100 pM to 10 μM, FIG. 12

## AKC18STYTGIFTDQVLSVLKGEE (AK(Stearoyl)STYTGIFTDQVLSVLKGEE) [C2thirdhelixStearylpos2]
[1]
  effect of lipidation on ability of C2thirdhelix to promote TG hydrolysis: lipidation enhanced the ability of C2thirdhelix to promote TG hydrolysis

## AMSTYTGIFTDQVLSVLKC18GEE (AMSTYTGIFTDQVLSVLK(Stearoyl)GEE) [C2thirdhelixStearylpos17]
[1]
  effect of lipidation on ability of C2thirdhelix to promote TG hydrolysis: lipidation enhanced the ability of C2thirdhelix to promote TG hydrolysis

## C18AMSTYTGIFTDQVLSVLKGEE (Stearoyl-AMSTYTGIFTDQVLSVLKGEE) [C2thirdhelixStearylpos1]
[1]
  effect of lipidation on ability of C2thirdhelix to promote TG hydrolysis: lipidation enhanced the ability of C2thirdhelix to promote TG hydrolysis

## C18DYLKAVFEKKC18RDLYSKFTAAnLSTYTGIFTDQVLSVLKGEE (Stearoyl-DYLKAVFEKK(Stearoyl)RDLYSKFTAA[Nle]STYTGIFTDQVLSVLKGEE) [bi-acyl-Delta4]
[1]
  promoting TG hydrolysis in the presence of LPL: capable of promoting TG hydrolysis in the presence of LPL

## C18DYLKAVFEKLRDLYSKFTAAnLSTYTGIFTDQVLSVLKGEE (Stearoyl-DYLKAVFEKLRDLYSKFTAA[Nle]STYTGIFTDQVLSVLKGEE) [mono-acyl-Delta4]
[1]
  promoting TG hydrolysis in the presence of LPL: capable of promoting TG hydrolysis in the presence of LPL

## DKVKEFLSEYWEKAKEFAPAVSTYTGIFTDQVLSVLKGEE [Delta13-31-PV]
[1]
  LPL activation / TG hydrolysis: promoted TG hydrolysis in vitro in a dose-dependent manner

## DYLKAVFEKKC18RDLYSKFTPAMSTYTGIFTDQVLSVLKGEE (DYLKAVFEKK(Stearoyl)RDLYSKFTPAMSTYTGIFTDQVLSVLKGEE) [Delta4b-2]
[1]; [3]
  TG hydrolysis: promoted TG hydrolysis in a dose-dependent manner

## DYLKAVFEKLRDLYSKFFPAMSTYTGIFTDQVLSVLKGEE [Delta4b T18F]
[1]; [3]
  TG hydrolysis: promoted TG hydrolysis in a dose-dependent manner

## DYLKAVFEKLRDLYSKFTAAKC16STYTGIFTDQVLSVLKGEE (DYLKAVFEKLRDLYSKFTAAK(Palmitoyl)STYTGIFTDQVLSVLKGEE) [Delta4c]
[1]; peptide concentrations from 10 pM to 100 μM, FIG. 13
  TG hydrolysis: promoted TG hydrolysis

## DYLKAVKC18EKLRDLYSKFTPAMSTYTGIFTDQVLSVLKGEE (DYLKAVK(Stearoyl)EKLRDLYSKFTPAMSTYTGIFTDQVLSVLKGEE) [Delta4b-1]
[1]; [3]
  TG hydrolysis: promoted TG hydrolysis in a dose-dependent manner

## DYLKEVAibEKLRDLYEKAibFPAVSTYTGIFTDQVLSVLKGEE (DYLKEV[Aib]EKLRDLYEK[Aib]FPAVSTYTGIFTDQVLSVLKGEE) [Delta6T18F-PV-AIB7,17]
[1]
  LPL activation / TG hydrolysis: activated LPL in vitro

## DYLKEVFEKLRDLYEKFFPAVSTYTGIFTDQVLSVLKGEE [Delta6T18F-PV]
[2]; 0.1 μmol/kg intraperitoneally, after the peptide injection
  time of maximum reduction of plasma TG: about 6 hours
[2]; 0.1 μmol/kg of body weight intraperitoneally, FIG. 53
  plasma TG: rapid reduction of plasma TG
[1]
  LPL activation / TG hydrolysis: activated LPL in vitro
